Laboratory results as given in patent publication US12077763B2, “RNA-based control of powdery mildew” (Greenlight Biosciences, Inc., priority 2021, dated 2024).

Test system: E. necator
Assay: Leaf disc assay, dry inoculum (settling tower), decrease in disease severity / hyphal growth (Example 2)
Conditions: decrease in disease severity (hyphal growth) relative to untreated control, value ± SE; for % decrease =/− SE TP1: time point 1 (untreated control hyphal growth ≥50%)

B1: GS1817: dsRNA trigger SEQ ID NO 139; gene target Cell division control protein 48 (nucleic acid)
DNA: GCTTCGCGAAAGTAAGGTGCAAGGAAAACATCAAAGAGGGAACCAGTAAGGCCTTCAACAGTATCTGCGATAGGAAGAACTGCGATACGTTTGGCGTATTTTATATCAGGACATGGATGTACTGTAACAATATCACCATGTTTAACCCTAAGGTTGTGTCGGACAACACGATTCATACGAGCACTCCCGTCATCTAAATCATCATCTGCGAGTACAATTAAAACAGTATCCTTTCGCTTCTTCCCCTTAACTAGGACAGTATCTCCACGAAAAAGCTGCAAAGTTTCCATGGTATTATTTGACAGTGCAATAACAGAGTTATCATCGTTGATGGCATCTGTTACAATTAAGGAATTTGGCTTTTTCTTCTTTTTTAAAATAGCAGTCGCAGTAGCATCAATCGTCTTTTGTTCAGCGCCAGAGGCATCCTCAAGTTTAACTGTTTTTTTACGAGTAGCATTGTCTTCAGACATAGTTGTGTAATAAAAGTTAAGAGGGCGTAATTTCCTAGAAAGAATATATCTACTATTAATTTATTGAGATCTTGGAATGAAGGTTTATCCGATAAAATCTGTAAATGATGGAGCTAATCTGAAG
- % decrease =/− SE TP1: 52 ± 2%
- % decrease =/− SE TP2 (time point 2): 49 ± 6%

B2: GS3938 (nucleic acid)
sense: AUCGGCAAAAGUAAUGCUUCAAAAGCUGAUACAAAGACUAUAUGGAGAGGAGCUUUAAAUAUAUUGGAAGACUUAAAAAACGCAGAAAAGGAUUGGAGAUUUGGGAAAACUGAAAUUGUAGGGUUUGACAUUGAGAGAGAGAACCAAAUAGAUUGCCCUCAAAGUGAUAUGGAAAUCUUGCAGCAACAGUCAAGCAACACUGCAAGCUAUGCCAAUAAUUUCACCUCCGACCUUACACCUGAAGGCCGCCCAACAGGAAAAGUUACGAAAGCUCGAUUUCAGUCUGCAGAAAUAGGAAAAUGUACUCAAGUUGGAUGGGGAGUCGUACACCUAUACCGUGAUGAUAACGAUGCUGUUAAUUUUGAUACCCGAACUACUACAUACGAUGGAAA
antisense: UUUCCAUCGUAUGUAGUAGUUCGGGUAUCAAAAUUAACAGCAUCGUUAUCAUCACGGUAUAGGUGUACGACUCCCCAUCCAACUUGAGUACAUUUUCCUAUUUCUGCAGACUGAAAUCGAGCUUUCGUAACUUUUCCUGUUGGGCGGCCUUCAGGUGUAAGGUCGGAGGUGAAAUUAUUGGCAUAGCUUGCAGUGUUGCUUGACUGUUGCUGCAAGAUUUCCAUAUCACUUUGAGGGCAAUCUAUUUGGUUCUCUCUCUCAAUGUCAAACCCUACAAUUUCAGUUUUCCCAAAUCUCCAAUCCUUUUCUGCGUUUUUUAAGUCUUCCAAUAUAUUUAAAGCUCCUCUCCAUAUAGUCUUUGUAUCAGCUUUUGAAGCAUUACUUUUGCCGAU
- % decrease =/− SE TP1: 3 ± 5%

B3: GS3939 (nucleic acid)
sense: AAGAUUGAAAAUGGAACGCCUAGAACAGCACCUUUAAUUACAACACGAAGGACUCCGAAAAUGCUACGAUCUACUGUGUCAAAUUCCUCGCUUUCCUCACAACCAUCAAUGUCACCGCAUCAAUUUAUUGCUCUUGCCCGGGAAGCAAUGAAAAAUGCUUUGGAAGAGAACAAAUCAAAGGCAGCUGAGGCCAAAAGUGUUAGUAAUGAACUUAAGCCAGGGGUUACGAUCGAUUUUAGCAACAAACAAAUCCAACGAUUUCCUGAUGAAGUAAUUGAUAUAAUAAAGAAUGAGCUUGAAAGACUUGCGCUGUCACAUAAUCAAAUAUCUGUGUUUCCCUCAAGGUUUUCCGAAUGCAAAUCACUCCGAUACCUCAAUGUUAGAGAUAAUGUUAU
antisense: AUAACAUUAUCUCUAACAUUGAGGUAUCGGAGUGAUUUGCAUUCGGAAAACCUUGAGGGAAACACAGAUAUUUGAUUAUGUGACAGCGCAAGUCUUUCAAGCUCAUUCUUUAUUAUAUCAAUUACUUCAUCAGGAAAUCGUUGGAUUUGUUUGUUGCUAAAAUCGAUCGUAACCCCUGGCUUAAGUUCAUUACUAACACUUUUGGCCUCAGCUGCCUUUGAUUUGUUCUCUUCCAAAGCAUUUUUCAUUGCUUCCCGGGCAAGAGCAAUAAAUUGAUGCGGUGACAUUGAUGGUUGUGAGGAAAGCGAGGAAUUUGACACAGUAGAUCGUAGCAUUUUCGGAGUCCUUCGUGUUGUAAUUAAAGGUGCUGUUCUAGGCGUUCCAUUUUCAAUCUU
- % decrease =/− SE TP1: 4 ± 5%
